Results on 1 substance are retold here after publication PMC7641504.

The assay concerns the target double mutant (E87C, C312T) AmtB protein complex from E. coli (E. coli) (UniProt P69681). As to the kind of experiment: native MS.

As for “double mutant (E87C, C312T) AmtB protein complex from E. coli (from UniProt P69681 23-428) (natural protein)”, the stoichiometry N came out at 3.

The stoichiometry N is a count of units in the complex or per binding partner.
